Results from patent US20230124973.

T1: hTERT (191-306), purified
T1 chain: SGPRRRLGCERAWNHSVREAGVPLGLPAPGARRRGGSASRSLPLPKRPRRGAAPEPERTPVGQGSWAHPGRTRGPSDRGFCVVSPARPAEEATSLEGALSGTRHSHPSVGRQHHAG

B1: IKK2 (2-664) (protein)
chain: SWSPSLTTQTCGAWEMKERLGTGGFGNVIRWHNQETGEQIAIKQCRQELSPRNRERWCLEIQIMRRLTHPNVVAARDVPEGMQNLAPNDLPLLAMEYCQGGDLRKYLNQFENCCGLREGAILTLLSDIASALRYLHENRIIHRDLKPENIVLQQGEQRLIHKIIDLGYAKELDQGSLCTSFVGTLQYLAPELLEQQKYTVTVDYWSFGTLAFECITGFRPFLPNWQPVQWHSKVRQKSEVDIVVSEDLNGTVKFSSSLPYPNNLNSVLAERLEKWLQLMLMWHPRQRGTDPTYGPNGCFKALDDILNLKLVHILNMVTGTIHTYPVTEDESLQSLKARIQQDTGIPEEDQELLQEAGLALIPDKPATQCISDGKLNEGHTLDMDLVFLFDNSKITYETQISPRPQPESVSCILQEPKRNLAFFQLRKVWGQVWHSIQTLKEDCNRLQQGQRAAMMNLLRNNSCLSKMKNSMASMSQQLKAKLDFFKTSIQIDLEKYSEQTEFGITSDKLLLAWREMEQAVELCGRENEVKLLVERMMALQTDIVDLQRSPMGRKQGGTLDDLEEQARELYRRLREKPRDQRTEGDSQEMVRLLLQAIQSFEKKVRVIYTQLSKTVVCKQKALELLPKVEEVVSLMNEDEKTVVRLQEKRQKELWNLLKIACSK

What was measured:
[1] = test system: hTERT (191-306), purified
[2] = molecular target: T1, hTERT (191-306), purified

Row | Molecule | in vitro kinase assay; phosphorylation site found by mass spectrometry and by Western blotting with Anti-hTERT pT249 [1] | in vitro kinase assay (negative control); phosphorylation sites found by mass spectrometry [2]
1 | CDK1-cyclin B (New England Biolabs) | pT249 was detected from only a sample treated with CDK1 | –
2 | B1 | – | pS206, pS274, pT283 and the like were detected from a sample treated with IKK2
